Experimental data: PMC3632103
Where two headings read alike, the source gives them in different places.

Key:
Assay in all cases: EMSA
[1] = target: T1, D2 helicase WT (His-MBP fusion) (Bacteriophage T5, UniProt Q6QGH9 1-928)
T1 sequence: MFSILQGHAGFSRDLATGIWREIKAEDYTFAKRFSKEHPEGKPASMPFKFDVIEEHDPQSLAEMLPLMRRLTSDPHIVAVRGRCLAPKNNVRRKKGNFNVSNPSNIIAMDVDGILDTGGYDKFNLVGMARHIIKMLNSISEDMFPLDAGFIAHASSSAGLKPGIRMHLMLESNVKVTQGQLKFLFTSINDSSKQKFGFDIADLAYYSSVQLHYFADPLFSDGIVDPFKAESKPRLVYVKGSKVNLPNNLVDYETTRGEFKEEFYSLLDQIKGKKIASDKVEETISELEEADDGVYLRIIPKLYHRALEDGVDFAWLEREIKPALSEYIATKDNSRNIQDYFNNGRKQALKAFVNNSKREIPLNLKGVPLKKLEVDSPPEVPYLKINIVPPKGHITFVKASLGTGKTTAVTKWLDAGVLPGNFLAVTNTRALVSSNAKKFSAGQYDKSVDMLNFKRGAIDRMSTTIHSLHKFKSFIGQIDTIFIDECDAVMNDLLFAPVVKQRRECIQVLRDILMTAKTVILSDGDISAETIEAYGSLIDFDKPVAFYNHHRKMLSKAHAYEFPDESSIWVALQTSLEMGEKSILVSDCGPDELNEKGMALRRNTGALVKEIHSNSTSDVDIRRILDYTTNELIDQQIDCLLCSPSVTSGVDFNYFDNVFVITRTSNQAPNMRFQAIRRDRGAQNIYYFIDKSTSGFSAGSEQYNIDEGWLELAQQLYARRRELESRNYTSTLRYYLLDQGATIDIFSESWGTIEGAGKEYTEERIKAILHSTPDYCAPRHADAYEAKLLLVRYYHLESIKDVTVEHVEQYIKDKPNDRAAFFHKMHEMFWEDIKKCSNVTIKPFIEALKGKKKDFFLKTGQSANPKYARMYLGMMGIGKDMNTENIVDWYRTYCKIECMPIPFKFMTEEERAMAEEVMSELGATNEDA

[2] = target: T1, D2 helicase WT (His-MBP fusion); remark: listed apart in the source
[3] = target: T2, D2 helicase K405E (His-MBP fusion) (Bacteriophage T5, UniProt Q6QGH9 1-928, K405E)
T2 sequence: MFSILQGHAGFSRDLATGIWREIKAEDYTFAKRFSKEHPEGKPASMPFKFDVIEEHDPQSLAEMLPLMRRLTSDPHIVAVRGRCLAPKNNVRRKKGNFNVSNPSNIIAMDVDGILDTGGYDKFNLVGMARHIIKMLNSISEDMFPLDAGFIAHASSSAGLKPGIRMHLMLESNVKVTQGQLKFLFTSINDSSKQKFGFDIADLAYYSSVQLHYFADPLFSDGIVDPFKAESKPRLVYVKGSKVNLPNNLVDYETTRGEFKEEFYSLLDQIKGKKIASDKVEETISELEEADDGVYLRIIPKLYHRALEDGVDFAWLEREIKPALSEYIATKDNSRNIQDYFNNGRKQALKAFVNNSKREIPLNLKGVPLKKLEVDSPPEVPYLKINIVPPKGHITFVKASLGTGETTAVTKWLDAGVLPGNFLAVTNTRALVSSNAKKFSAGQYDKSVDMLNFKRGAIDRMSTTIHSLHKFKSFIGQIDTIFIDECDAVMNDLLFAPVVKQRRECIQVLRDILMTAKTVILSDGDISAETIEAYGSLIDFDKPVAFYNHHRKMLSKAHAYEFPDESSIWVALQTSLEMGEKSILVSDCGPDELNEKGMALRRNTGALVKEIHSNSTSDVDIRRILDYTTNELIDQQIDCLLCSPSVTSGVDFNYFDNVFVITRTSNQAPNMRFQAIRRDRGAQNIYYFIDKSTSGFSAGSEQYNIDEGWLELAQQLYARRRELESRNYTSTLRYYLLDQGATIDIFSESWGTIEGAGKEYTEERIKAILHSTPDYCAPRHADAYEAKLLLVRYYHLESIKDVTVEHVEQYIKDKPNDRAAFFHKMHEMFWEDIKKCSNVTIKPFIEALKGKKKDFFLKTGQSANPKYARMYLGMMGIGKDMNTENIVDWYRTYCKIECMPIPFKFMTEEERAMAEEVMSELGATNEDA

B1: T55 (ssDNA)
DNA: TTTTTTTTTTTTTTTTTTTTTTTTTTTTTTTTTTTTTTTTTTTTTTTTTTTTTTT
binding result [1]: binds

TTTTTTTTTTTTTTTTTTTTTTTTT (ssDNA) [T25]
binding result [2]: binds | binding result [3]: binds

TTTTTTTTTTTTTTTTTTTTTTTTTTTTTTTTTTT (ssDNA) [T35]
binding result [1]: binds
